Data taken from publication PMC8809517, “Cofactor-independent RNA editing by a synthetic S-type PPR protein”.
Where a chain is given by its changes, count along the chain named.

T1: GFP-9S library array, motif 4 ND N98W;D124C (synthetic construct, N98W;D124C)
T1 chain: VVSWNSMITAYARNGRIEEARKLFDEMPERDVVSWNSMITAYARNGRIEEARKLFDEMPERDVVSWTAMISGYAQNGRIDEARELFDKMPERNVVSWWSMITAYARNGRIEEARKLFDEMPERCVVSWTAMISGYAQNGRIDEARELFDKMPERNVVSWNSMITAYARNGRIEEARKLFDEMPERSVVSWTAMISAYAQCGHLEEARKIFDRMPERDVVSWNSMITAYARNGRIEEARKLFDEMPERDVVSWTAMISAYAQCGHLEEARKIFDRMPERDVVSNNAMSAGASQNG

T2: GFP-9S library array, motif 4 ND N98S;D124L (synthetic construct, N98S;D124L)
T2 chain: T1 chain with W98S, C124L

T3: GFP-9S library array, motif 4 ND N98G;D124P (synthetic construct, N98G;D124P)
T3 chain: T1 chain with W98G, C124P

T4: GFP-9S library array, motif 4 ND D124P (synthetic construct, D124P)
T4 chain: T1 chain with W98N, C124P

T5: GFP-9S library array, motif 4 ND N98R;D124P (synthetic construct, N98R;D124P)
T5 chain: T1 chain with W98R, C124P

B1: IR-rpoA-U (ssRNA)
RNA: AUUAUACGUGA
B2: IR-rpoA-A (ssRNA)
RNA: AUUAAACGUGA
B3: Cy5-rpoA-G (ssRNA)
RNA: AUUAGACGUGA
B4: Cy5-rpoA (ssRNA)
RNA: AUUACACGUGA

Columns and labels:
Experiment in all cases: high-throughput RNA pulldown from lysate on Ni-NTA beads; HRP: 50 mM Tris pH 8, 150 mM NaCl, 1 mM beta-mercaptoethanol, 50 ug/ml BSA, 3 ug/ml yeast RNA, 0.5% heparin; ITC and FP: Tris pH 8, 200 mM KCl, 5% glycerol; MST: 50 mM Tris pH 8, 200 mM NaCl, 1 mM DTT, BSA, heparin, 0.05% Tween 20
Settings in all cases: tags: N-terminal His-eGFP
[1] = biological target: T1, GFP-9S library array, motif 4 ND …
[2] = biological target: T2, GFP-9S library array, motif 4 ND …
[3] = biological target: T3, GFP-9S library array, motif 4 ND …
[4] = biological target: T4, GFP-9S library array, motif 4 ND D124P
[5] = biological target: T5, GFP-9S library array, motif 4 ND …

| Binder | Kd ([1]; label: 5' IRDye 800CW) [nM] | Kd ([2]; label: 5' IRDye 800CW) [nM] | Kd ([3]; label: 5' IRDye 800CW) [nM] | Kd ([4]; label: 5' IRDye 800CW) [nM] | Kd ([5]; label: 5' IRDye 800CW) [nM] | Kd ([1]; label: 5' Cy5) [nM] | Kd ([2]; label: 5' Cy5) [nM] | Kd ([3]; label: 5' Cy5) [nM] | Kd ([4]; label: 5' Cy5) [nM] | Kd ([5]; label: 5' Cy5) [nM] |
| --- | --- | --- | --- | --- | --- | --- | --- | --- | --- | --- |
| B1 | 199 | 164 | 128 | 154 | 163 |  |  |  |  |  |
| B2 | 181 | 159 | 179 | 290 | 335 |  |  |  |  |  |
| B3 |  |  |  |  |  | 77.6 | 94 | 127 | 158 | 151 |
| B4 |  |  |  |  |  | 79.4 | 83.5 | 85.9 | 123 | 143 |
